Reference: a protein production outcome set (Wang et al. 2014)

Assay: label from the status in PepcDB records

Sequence	protein production
MAHELSAGSVFAGYRIERMLGAGGMGTVYLARNPDLPRSEALKVLAAELSRDLDFRARFVREADVAAGLDHPNIVAVHQRGQFEGRLWIAMQFVDGGNAEDALRAATMTTARAVYVIGEVAKALDYAHQQGVIHRDIKPANFLLSRAAGGDERVLLSDFGIARALGDTGLTSTGSVLATLAYAAPEVLAGQGFDGRADLYSLGCALFRLLTGEAPFAAGAGAAVAVVAGHLHQPPPTVSDRVPGLSAAMDAVIATAMAKDPMRRFTSAGEFAHAAAAALYGGATDGWVPPSPAPHVISQGAVPGSPWWQHPVGSVTALATPPGHGWPPGLPPLPRRPRRYRRGVAAVAAVMVVAAAAVTAVTMTSHQPRTATPPSAAALSPTSSSTTPPQPPIVTRSRLPGLLPPLDDVKNFVGIQNLVAHEPMLQPQTPNGSINPAECWPAVGGGVPSAYDLGTVIGFYGLTIDEPPTGTAPNQVGQLIVAFRDAATAQRHLADLASIWRRCGGRTVTLFRSEWRRPVELSTSVPEVVDGITTMVLTAQGPVLRVREDHAIAAKNNVLVDVDIMTPDTSRGQQAVIGITNYILAKIPG	failed
MKNVGDLMQRLQKMMPAHIKPAFKTGEELLAWQKEQGAIRSAALERENRAMKMQRTFNRSGIRPLHQNCSFENYRVECEGQMNALSKARQYVEEFDGNIASFIFSGKPGTGKNHLAAAICNELLLRGKSVLIITVADIMSAMKDTFRNSGTSEEQLLNDLSNVDLLVIDEIGVQTESKYEKVIINQIVDRRSSSKRPTGMLTNSNMEEMTKLLGERVMDRMRLGNSLWVIFNWDSYRSRVTGKEY	failed
MAQSFLLMGALIQHHLKGEKADLLTPEKLLEAANKQGTVPSRVRYQWMEDEETGRLKAVGYHTSMESGRDQVRVRLLKHDFPNNRYEFWEEGATGPTILWTPDNPGIELPTDTAHGEQPVIPSAIPGLEIPEMDDVSILATPMPDEKDFRDYILVFPENAFPPIYVYLSKKIDTPIWLEHHHHHH	not failed
MFWDSSRLIKLIGFFCLLLAQPLHATILSSALLNEAQQLAEIEPAQAKQAAKNYLSQRELTERKESGSPSAMSREETDRSIRTPASTIEAHKIIAQADYTMGNVRSAIDNLNEAEKLAKEYQLPYMTLDVQLMRNQMIWMYDHNYSAAEDALNQIEKQLDEADSVLQRTDSVRYRLVMQRALLAAHRGDNVGAERLYAQAKSMLEDSRSDLALIDYYTSVGEFYLNSKKYNLALSELLYGYWQSIESDSGTRLAKVNRLLARLFQERRVYDKAIEYLSQAADFYDSYPSSPILADVLEQMGDIYFYQGKFNLALVHYFNVLDHESTSRNINRTIKIRLSLAATYLQLYNYALAEQYLERATELLEYADIPQLEAKAALLKSGLAYHQNDSKKVIENAKKALELVEKAPENKNFIKQQSYRLLGLGYEQAGEYQLSLQAYKKYTSLVRLEQKQLNQISEDAFRQQKEFAEQTIHYVGQSERLEQVEMEHRKFQKISFALFITVLVMFLFIMRRGVIMQRQAGEIEKLRNDLFTHSRSRLRNLRMLNVKLSRSLKKSRDTFEQWQMGELIHEPLNDRLRFVMIDLPFLRSMYVQNGYKAGLELERAFGEYLAERIEKPARLYHFSDANLLYIEPNADRDASAEVMFEKFQAWVDEFATQHNVNRIIRMGISDYPFLPRAYTAINDEELLDLLLLATHIAREVSLKDKQSHWVFLKAIDNAPAASFATGNIRTACQHAINQGLIKIHSSYKNEDDIKKILKNG	failed
MAEQDLTMIVGTYTSGDSKGLYSFRFNEENGTATALSEAEVENPSYLVPSADGKFIYAVSEFSNEQAAANAFAFNKEEGTFRLLNTQKTGGEDPCYIITNGSNVVTANYSGGSISVFPIDKDGSLLPASEVVKFKGSGADKERQEKPHLHCVRITPDGKYLFADDLGTDQIHKFIVNPNAKADNEDVFLKEGSPASYKVEAGSGPRHLTFAPNGSYAYLINELSGTVIAFEYNDGELKEIQTIAADTVGAKGSGDIHISPDGKFLYASNRLKADGLAIFSIHPENGMLTKVGYQLTGIHPRNFIITPNGKYLLVACRDSNVIQVYERDTDTGLLTDIRKDIKVDKPVCIKFVPLEHHHHHH	not failed
MIRCLHVLYVRHVMLMSTIHHTKRTLQPYFALVRAPFLVFTAIVILLPAAAAAEAGILNVTNTLLAFGSVLAAHVAVNILNLASDYRTGIDEATDETPYSGGNDVLVSGTLSYRRALAAGVIAILASALFVVPLVSQFGGIVLLFYGVGTVLVVGYTDVFARIGLGEFACGAGLTFLPTVAVGYIQAGTFPESVLYLSVPMFLVGFNLLLLNEFPDVEADRTNGRVNIPVVLGRQTAGYIYFGLVGVLVASLLYPIATGALPATVAVAILPIALLAPIFRTVVLEGNGDLTDDELGNHILWTQTTIVALAVGMAAAAVL	failed
